Data as given in PMC8588329.

Target: recombinant Plasmodium knowlesi lactate dehydrogenase (Plasmodium knowlesi)
Assay: SEC; Superdex 200 10/300 GL, 50 mM phosphate buffer pH 7.4, 250 mM NaCl, 0.50 mL/min; elution volume 13 mL set against a calibration curve of protein standards

Substance: recombinant Plasmodium knowlesi lactate dehydrogenase (enzyme)
- stoichiometry N: 4
